Assay results from patent US6897294 (Genentech, dated 2005).

B3: vascular endothelial growth factor VEGF165 (ligand, UniProt P15692-4 27-191, looked up)
chain: APMAEGGGQNHHEVVKFMDVYQRSYCHPIETLVDIFQEYPDEIEYIFKPSCVPLMRCGGCCNDEGLECVPTEESNITMQIMRIKPHQGQHIGEMSFLQHNKCECRPKKDRARQENPCGPCSERRKHLFVQDPQTCKCSCKNTDSRCKARQLELNERTCRCDKPRR
notes: mature; also called VEGF ligand

Columns and labels:
[1] = target: B3; test: saturation binding of 125I-VEGF to transiently transfected 293 cells, Scatchard analysis
Description: (§1) After preparation of these expression constructs, 293 cells were transfected with the constructs via DEAE-Dextran and transiently-expressing cells were analyzed for the ability to bind to the VEGF ligand. To detect binding of the VEGF ligand, a saturation binding assay was performed on transiently-expressing 293 cells expressing the intact FLT4 receptor, the flt-1 domain 2/FLT4 chimeric receptor, the flt-1 domains 1–3/FLT4 chimeric receptor, or the intact flt-1 receptor. […] The cell mixture was then layered over a 0.75 ml cushion of 30% sucrose, centrifuged for 10 minutes at maximum speed, and the pellet was recovered and counted in a gamma counter. […] The amount of counts added and the recovered counts bound were then subjected to scatchard analysis.

[2] = target: B3; test: saturation binding of 125I-VEGF to transiently transfected 293 cells, background of non-transfected cells subtracted
Description: as §1

[3] = target: T1, flt-1 extracellular domain/IgG Fc chimera (flt-1/IgG) (human, UniProt P17948 27-758); test: unlabeled VEGF titrated against 125I-VEGF165 binding to 1 ng immunoreactive flt-1/IgG on anti-Fc plates; 4-parameter fit (FIG. 5)
T1 construct: Secreted from CEN4 cells and used as conditioned medium quantified by Fc ELISA; also called intact flt-1/IgG chimeric VEGF receptor protein; native flt-1/IgG; not shown: Fc of human IgG1 (amino acids 216-443 of the Capon IgG gamma-1 heavy chain clone)
Description: (§2) Binding assays with the soluble chimeric VEGF receptors generated in Example 1 above were performed essentially as described by Park et al., *J. Biol. Chem.* 269:25646–25654 (1994). […] Plates were blocked for 1 hr with 10% fetal bovine serum in PBS (buffer B). After removal of the blocking buffer, 100 µl of a binding cocktail was added to each well. […] The specific activity of the iodinated VEGF was 5.69 ×10^7 cpm/microgram. Incubation in the coated wells proceeded for 4 hrs at room temperature, followed by 4 washes with buffer B. Binding was determined by counting individual wells in a gamma counter. Data was analyzed using a 4-parameter non-linear curve fitting program (Kalidagraph, Abelbeck Software).
Binding assays were performed essentially as described above. […] This occurs at the point of inflection of the curve. […] Thus, the flt(1, 2, 3) deletion chimera behaves in a similar fashion to the intact flt-1/IgG chimeric protein with respect to binding to the VEGF ligand.

[4] = target: T2, flt(1,2): flt-1 Ig-like domains 1 and 2 only fused to the Fc of IgG (human, UniProt P01857-1 104-330 = IgG part, limits assumed); test: 125I-VEGF165 binding to chimeric protein captured on anti-human Fc coated plates (FIG. 4)
T2 construct: domain: Fc of IgG; The true C-terminal limit may therefore be 225
Description: as §2

[5] = target: T3, flt(2): flt-1 Ig-like domain 2 only fused to the Fc of IgG (human, UniProt P01857-1 104-330 = IgG part, limits assumed); test: as above
T3 construct: domain: Fc of IgG
Description: as §2

[6] = target: T4, flt-1(2)/FLT4 chimeric receptor (human, UniProt P35916 25-1363); test: saturation binding of 125I-VEGF to transiently transfected 293 cells, Scatchard analysis
T4 construct: Stably expressed in NIH 3T3 cells for thymidine incorporation; also called flt-1 domain 2/FLT4 chimeric receptor
Description: as §1

T1 sequence (P17948 other isoform, or with tags, fused parts or gaps mutant limits assumed): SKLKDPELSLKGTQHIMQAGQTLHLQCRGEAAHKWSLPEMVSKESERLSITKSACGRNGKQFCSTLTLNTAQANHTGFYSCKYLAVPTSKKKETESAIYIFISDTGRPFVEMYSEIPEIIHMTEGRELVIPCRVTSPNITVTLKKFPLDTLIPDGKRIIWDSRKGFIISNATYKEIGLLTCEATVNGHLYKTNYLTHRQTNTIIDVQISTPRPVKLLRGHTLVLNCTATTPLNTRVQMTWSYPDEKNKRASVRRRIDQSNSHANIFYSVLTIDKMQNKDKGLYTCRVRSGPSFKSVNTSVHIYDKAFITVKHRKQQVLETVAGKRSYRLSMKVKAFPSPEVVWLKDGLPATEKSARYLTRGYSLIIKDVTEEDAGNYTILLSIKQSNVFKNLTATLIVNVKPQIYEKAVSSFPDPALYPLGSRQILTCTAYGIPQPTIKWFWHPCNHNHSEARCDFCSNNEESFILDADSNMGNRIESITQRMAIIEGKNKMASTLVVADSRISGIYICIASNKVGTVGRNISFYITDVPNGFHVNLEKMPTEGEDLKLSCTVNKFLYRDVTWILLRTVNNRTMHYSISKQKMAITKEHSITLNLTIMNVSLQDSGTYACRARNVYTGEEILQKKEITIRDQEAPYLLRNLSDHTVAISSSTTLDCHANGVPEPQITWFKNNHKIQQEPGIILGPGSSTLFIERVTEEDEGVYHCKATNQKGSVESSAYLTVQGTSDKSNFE
T3 sequence (P01857 other isoform, or with tags, fused parts or gaps limits assumed): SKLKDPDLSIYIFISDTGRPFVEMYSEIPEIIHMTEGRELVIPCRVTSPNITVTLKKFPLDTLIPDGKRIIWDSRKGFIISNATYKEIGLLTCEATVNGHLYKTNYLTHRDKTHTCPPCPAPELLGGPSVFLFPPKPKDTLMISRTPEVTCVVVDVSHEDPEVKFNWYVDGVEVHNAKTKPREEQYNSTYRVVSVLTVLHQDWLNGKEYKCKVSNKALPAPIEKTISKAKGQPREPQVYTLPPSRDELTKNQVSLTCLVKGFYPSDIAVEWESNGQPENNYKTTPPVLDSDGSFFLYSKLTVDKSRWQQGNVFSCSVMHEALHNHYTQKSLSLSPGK
T2 sequence (P01857 other isoform, or with tags, fused parts or gaps limits assumed): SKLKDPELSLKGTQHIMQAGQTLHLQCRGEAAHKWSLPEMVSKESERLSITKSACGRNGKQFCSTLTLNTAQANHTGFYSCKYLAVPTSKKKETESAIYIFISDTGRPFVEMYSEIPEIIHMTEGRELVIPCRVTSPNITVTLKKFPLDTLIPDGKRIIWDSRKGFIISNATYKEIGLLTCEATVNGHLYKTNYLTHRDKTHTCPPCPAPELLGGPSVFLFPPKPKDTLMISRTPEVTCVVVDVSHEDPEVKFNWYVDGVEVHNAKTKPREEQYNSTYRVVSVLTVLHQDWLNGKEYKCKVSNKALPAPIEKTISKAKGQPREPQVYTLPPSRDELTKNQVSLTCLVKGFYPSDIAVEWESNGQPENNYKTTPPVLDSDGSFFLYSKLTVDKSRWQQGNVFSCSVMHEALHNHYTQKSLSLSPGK

B1: flt-1(1, 2, 3)/FLT4 chimeric receptor (receptor)
chain: YSMTPPTLSLKGTQHIMQAGQTLHLQCRGEAAHKWSLPEMVSKESERLSITKSACGRNGKQFCSTLTLNTAQANHTGFYSCKYLAVPTSKKKETESAIYIFISDTGRPFVEMYSEIPEIIHMTEGRELVIPCRVTSPNITVTLKKFPLDTLIPDGKRIIWDSRKGFIISNATYKEIGLLTCEATVNGHLYKTNYLTHRQTNTIIDVQISTPRPVKLLRGHTLVLNCTATTPLNTRVQMTWSYPDEKNKRASVRRRIDQSNSHANIFYSVLTIDKMQNKDKGLYTCRVRSGPSFKSVNTSVRVHENPFISVEWLKGPILEATAGDELVKLPVKLAAYPPPEFQWYKDGKALSGRHSPHALVLKEVTEASTGTYTLALWNSAAGLRRNISLELVVNVPPQIHEKEASSPSIYSRHSRQALTCTAYGVPLPLSIQWHWRPWTPCKMFAQRSLRRRQQQDLMPQCRDWRAVTTQDAVNPIESLDTWTEFVEGKNKTVSKLVIQNANVSAMYKCVVSNKVGQDERLIYFYVTTIPDGFTIESKPSEELLEGQPVLLSCQADSYKYEHLRWYRLNLSTLHDAHGNPLLLDCKNVHLFATPLAASLEEVAPGARHATLSLSIPRVAPEHEGHYVCEVQDRRSHDKHCHKKYLSVQALEAPRLTQNLTDLLVNVSDSLEMQCLVAGAHAPSIVWYKDERLLEEKSGVDLADSNQKLSIQRVREEDAGRYLCSVCNAKGCVNSSASVAVEGSEDKGSMEIVILVGTGVIAVFFWVLLLLIFCNMRRPAHADIKTGYLSIIMDPGEVPLEEQCEYLSYDASQWEFPRERLHLGRVLGYGAFGKVVEASAFGIHKGSSCDTVAVKMLKEGATASEHRALMSELKILIHIGNHLNVVNLLGACTKPQGPLMVIVEFCKYGNLSNFLRAKRDAFSPCAEKSPEQRGRFRAMVELARLDRRRPGSSDRVLFARFSKTEGGARRASPDQEAEDLWLSPLTMEDLVCYSFQVARGMEFLASRKCIHRDLAARNILLSESDVVKICDFGLARDIYKDPDYVRKGSARLPLKWMAPESIFDKVYTTQSDVWSFGVLLWEIFSLGASPYPGVQINEEFCQRLRDGTRMRAPELATPAIRRIMLNCWSGDPKARPAFSELVEILGDLLQGRGLQEEEEVCMAPRSSQSSEEGSFSQVSTMALHIAQADAEDSPPSLQRHSLAARYYNWVSFPGCLARGAETRGSSRMKTFEEFPMTPTTYKGSVDNQTDSGMVLASEEFEQIESRHRQESGFSCKGPGQNVAVTRAHPDSQGRRRRPERGARGGQVFYNSEYGELSEPSEEDHCSPSARVTFFTDNSY
notes: Stably expressed in NIH 3T3 cells for thymidine incorporation; also called flt-1 domains 1-3/FLT4 chimeric receptor
[1]
  Kd: ~0.0104 nM

B2: intact FLT4 receptor (receptor)
chain: YSMTPPTLNITEESHVIDTGDSLSISCRGQHPLEWAWPGAQEAPATGDKDSEDTGVVRDCEGTDARPYCKVLLLHEVHANDTGSYVCYYKYIKARIEGTTAASSYVFVRDFEQPFINKPDTLLVNRKDAMWVPCLVSIPGLNVTLRSQSSVLWPDGQEVVWDDRRGMLVSTPLLHDALYLQCETTWGDQDFLSNPFLVHITGNELYDIQLLPRKSLELLVGEKLVLNCTVWAEFNSGVTFDWDYPGKQAERGKWVPERRSQQTHTELSSILTIHNVSQHDLGSYVCKANNGIQRFRESTEVIVHENPFISVEWLKGPILEATAGDELVKLPVKLAAYPPPEFQWYKDGKALSGRHSPHALVLKEVTEASTGTYTLALWNSAAGLRRNISLELVVNVPPQIHEKEASSPSIYSRHSRQALTCTAYGVPLPLSIQWHWRPWTPCKMFAQRSLRRRQQQDLMPQCRDWRAVTTQDAVNPIISLDTWTEFVQGKNKTVSKLVIQNANVSAMYKCVVSNKVGQDERLIYFYVTTIPDGFTIESKPSEELLEGQPVLLSCQADSYKYEHLRWYRLNLSTLHDAHGNPLLLDCKNVHLFATPLAASLEEVAPGARHATLSLSIPRVAPEHEGHYVCEVQDRRSHDKHCHKKYLSVQALEAPRLTQNLTDLLVNVSDSLEMQCLVAGAHAPSIVWYKDERLLEEKSGVDLADSNQKLSIQRVREEDAGRYLCSVCNAKGCVNSSASVAVEGSEDKGSMEIVILVGTGVIAVFFWVLLLLIFCNMRRPANADIKTGYLSIIMDPGEVPLEEQCEYLSYDASQWEFPRERLHLGRVLGYGAFGFVVEASAFGIHKGSSCDTVAVKMLKEGASASEHRALMSELKILIHIGNHLNVVNLLGACTKPQGPLMVIVEFCKYGNLSNFLRAKRDAFSPCAEKSPEQRGRFRAMVELARLDRRRPGSSDRVLFARFSKSEGGARRASPDQEAEDLWLSPLTMEDLVCYSFQVARGMEFLASRKCIHRDLAARNILLSESDVVKICDFGLARDIYKDPDYVRKGSARLPLKWMAPESIFDKVYTTQSDVMSFGVLLWEIFSLGASPYPGVQINEEFCQRLRDGTRMRAPELATPAIRRIMLNCWSGDPKARPAFSEVLEILGDLLQGRGLQEEEEVCMAPRSSQSSEEGSFSQVSTMALHIIQADAEDSPPSLQRHSLAARYYNWVSFPGCLARGAETRGSSRMKTFEEFPMTPTTYKGSVDNQTDSGMVLASEEFEQIESRHRQESGFSCKGPGQNVAVTRAHPDSQGRRRRPERGARGGQVFYNSEYGELSEPSEEDHCSPSARVTFFTDNSY
notes: Transiently expressed on 293 cells; also called entire human FLT4 receptor
[2]
  binding result: no binding

## B3
[3]
  IC50: 1.89 ng/mL
[4]
  binding result: no binding
[5]
  binding result: no binding
[6]
  Kd: ~0.0102 nM
